B1: GpH7-B3 variant S324_20W/GpL16-k0 (antibody, human IgG1, kappa)
heavy: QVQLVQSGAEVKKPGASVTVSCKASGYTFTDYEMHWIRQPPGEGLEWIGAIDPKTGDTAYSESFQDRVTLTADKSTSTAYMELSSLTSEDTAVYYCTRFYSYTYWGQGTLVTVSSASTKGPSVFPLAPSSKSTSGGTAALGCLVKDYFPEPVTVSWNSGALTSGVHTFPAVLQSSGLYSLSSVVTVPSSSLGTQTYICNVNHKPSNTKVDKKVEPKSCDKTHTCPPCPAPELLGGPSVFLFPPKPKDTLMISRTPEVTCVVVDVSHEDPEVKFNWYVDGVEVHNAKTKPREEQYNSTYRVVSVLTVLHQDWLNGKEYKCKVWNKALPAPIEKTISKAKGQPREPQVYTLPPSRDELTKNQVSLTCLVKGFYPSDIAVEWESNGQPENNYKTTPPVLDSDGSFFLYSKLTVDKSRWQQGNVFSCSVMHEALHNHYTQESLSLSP
light: DIVMTQSPLSLPVTPGEPASISCQASESLVHSNRNTYLHWYLQKPGQSPQLLIYKVSNRFSGVPDRFSGSGSGTDFTLKISRVEAEDVGVYYCSQNTHVPPTFGQGTKVEIERTVAAPSVFIFPPSDEQLKSGTASVVCLLNNFYPREAKVQWKVDNALQSGNSQESVTEQDSKDSTYSLSSTLTLSKADYEKHKVYACEVTHQGLSSPVTKSFNRGEC
notes: also called Ho Ab S324_20W
B2: GpH7-B3 variant S337_19Q/GpL16-k0 (antibody, human IgG1, kappa)
heavy: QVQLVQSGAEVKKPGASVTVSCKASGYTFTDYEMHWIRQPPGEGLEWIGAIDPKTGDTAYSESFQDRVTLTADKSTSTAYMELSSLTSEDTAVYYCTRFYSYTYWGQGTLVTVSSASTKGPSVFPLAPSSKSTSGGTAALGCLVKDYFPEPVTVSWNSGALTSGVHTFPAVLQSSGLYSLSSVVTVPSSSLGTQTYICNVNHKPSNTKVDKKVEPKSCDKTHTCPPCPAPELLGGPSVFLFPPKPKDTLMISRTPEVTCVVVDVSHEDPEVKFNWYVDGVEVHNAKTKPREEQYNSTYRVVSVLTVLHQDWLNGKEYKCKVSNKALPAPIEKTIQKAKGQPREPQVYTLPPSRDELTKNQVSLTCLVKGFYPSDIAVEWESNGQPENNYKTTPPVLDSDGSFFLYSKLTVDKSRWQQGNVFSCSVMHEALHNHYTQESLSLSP
light: B1 light
notes: also called Ho Ab S337_19Q
B3: GpH7-B3 variant T335_08L/GpL16-k0 (antibody, human IgG1, kappa)
heavy: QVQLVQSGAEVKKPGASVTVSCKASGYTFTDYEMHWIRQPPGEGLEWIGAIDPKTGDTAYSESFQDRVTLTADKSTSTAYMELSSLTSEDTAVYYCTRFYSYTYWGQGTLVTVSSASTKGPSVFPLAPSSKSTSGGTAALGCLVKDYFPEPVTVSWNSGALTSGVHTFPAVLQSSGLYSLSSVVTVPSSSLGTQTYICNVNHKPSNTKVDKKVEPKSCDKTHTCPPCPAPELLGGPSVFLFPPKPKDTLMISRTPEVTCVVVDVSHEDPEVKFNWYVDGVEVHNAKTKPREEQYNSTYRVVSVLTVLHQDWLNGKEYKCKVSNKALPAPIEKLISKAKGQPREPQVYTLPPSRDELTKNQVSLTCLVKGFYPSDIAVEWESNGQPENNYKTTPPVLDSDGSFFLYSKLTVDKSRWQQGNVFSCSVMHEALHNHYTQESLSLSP
light: B1 light
notes: also called Ho Ab T335_08L
B4: GpH7-B3 variant T335_06M/GpL16-k0 (antibody, human IgG1, kappa)
heavy: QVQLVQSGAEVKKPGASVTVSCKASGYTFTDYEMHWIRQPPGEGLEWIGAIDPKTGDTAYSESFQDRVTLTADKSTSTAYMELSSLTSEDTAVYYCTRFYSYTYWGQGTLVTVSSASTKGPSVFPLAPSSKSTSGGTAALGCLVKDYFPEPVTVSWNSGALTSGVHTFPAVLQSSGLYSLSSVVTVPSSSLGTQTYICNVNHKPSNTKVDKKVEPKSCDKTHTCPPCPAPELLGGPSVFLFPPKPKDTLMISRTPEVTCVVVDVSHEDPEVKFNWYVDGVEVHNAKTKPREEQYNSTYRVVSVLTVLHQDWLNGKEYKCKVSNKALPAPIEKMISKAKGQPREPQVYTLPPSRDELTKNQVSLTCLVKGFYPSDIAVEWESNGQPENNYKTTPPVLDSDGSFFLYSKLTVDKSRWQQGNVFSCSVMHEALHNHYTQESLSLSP
light: B1 light
notes: also called Ho Ab T335_06M
B5: GpH7-B3 variant T335_12R/GpL16-k0 (antibody, human IgG1, kappa)
heavy: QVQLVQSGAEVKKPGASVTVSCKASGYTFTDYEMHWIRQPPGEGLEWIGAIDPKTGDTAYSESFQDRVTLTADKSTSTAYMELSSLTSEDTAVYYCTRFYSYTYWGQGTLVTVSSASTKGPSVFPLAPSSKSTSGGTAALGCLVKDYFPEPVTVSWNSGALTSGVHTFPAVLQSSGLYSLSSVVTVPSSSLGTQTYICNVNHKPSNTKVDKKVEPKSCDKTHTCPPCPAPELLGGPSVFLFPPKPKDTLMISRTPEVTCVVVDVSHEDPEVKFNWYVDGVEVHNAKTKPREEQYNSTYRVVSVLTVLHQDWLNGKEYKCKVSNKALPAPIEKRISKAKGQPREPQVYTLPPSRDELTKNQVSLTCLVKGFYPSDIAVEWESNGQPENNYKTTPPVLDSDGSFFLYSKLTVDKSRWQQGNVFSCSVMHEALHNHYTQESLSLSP
light: B1 light
notes: also called Ho Ab T335_12R
B6: GpH7-A5/GpH7-B3 variant S298_11K/GpL16-k0 (antibody, human IgG1, kappa)
heavy 1: not shown
heavy 2: not shown
light: B1 light
notes: also called He Ab S298_11K
B7: GpH7-A5/GpH7-B3 variant Q295_03V/GpL16-k0 (antibody, human IgG1, kappa)
heavy 1: not shown
heavy 2: not shown
light: B1 light
notes: also called He Ab Q295_03V
B8: GpH7-A5/GpH7-B3 variant S239_14T/GpL16-k0 (antibody, human IgG1, kappa)
heavy 1: not shown
heavy 2: not shown
light: B1 light
notes: also called He Ab S239_14T
B9: GpH7-A5/GpH7-B3 variant Q295_14T/GpL16-k0 (antibody, human IgG1, kappa)
heavy 1: not shown
heavy 2: not shown
light: B1 light
notes: also called He Ab Q295_14T
B10: GpH7-A5/GpH7-B3 variant Q295_02A/GpL16-k0 (antibody, human IgG1, kappa)
heavy 1: not shown
heavy 2: not shown
light: B1 light
notes: also called He Ab Q295_02A
B11: GpH7-A5/GpH7-B3 variant P271_13S/GpL16-k0 (antibody, human IgG1, kappa)
heavy 1: not shown
heavy 2: not shown
light: B1 light
notes: also called He Ab P271_13S
B12: GpH7-A5/GpH7-B3 variant S267_01G/GpL16-k0 (antibody, human IgG1, kappa)
heavy 1: not shown
heavy 2: not shown
light: B1 light
notes: also called He Ab S267_01G
B13: GpH7-A5/GpH7-B3 variant Q295_04F/GpL16-k0 (antibody, human IgG1, kappa)
heavy 1: not shown
heavy 2: not shown
light: B1 light
notes: also called He Ab Q295_04F
B14: GpH7-A5/GpH7-B3 variant S239_09D/GpL16-k0 (antibody, human IgG1, kappa)
heavy 1: not shown
heavy 2: not shown
light: B1 light
notes: also called He Ab S239_09D
B15: GpH7-A5/GpH7-B3 variant P271_07I/GpL16-k0 (antibody, human IgG1, kappa)
heavy 1: not shown
heavy 2: not shown
light: B1 light
notes: also called He Ab P271_07I
B16: GpH7-A5/GpH7-B3 variant S239_18N/GpL16-k0 (antibody, human IgG1, kappa)
heavy 1: not shown
heavy 2: not shown
light: B1 light
notes: also called He Ab S239_18N
B17: GpH7-A5/GpH7-B3 variant Q295_07I/GpL16-k0 (antibody, human IgG1, kappa)
heavy 1: not shown
heavy 2: not shown
light: B1 light
notes: also called He Ab Q295_07I
B18: GpH7-A5/GpH7-B3 variant P271_12R/GpL16-k0 (antibody, human IgG1, kappa)
heavy 1: not shown
heavy 2: not shown
light: B1 light
notes: also called He Ab P271_12R
B19: GpH7-A5/GpH7-B3 variant S239_01G/GpL16-k0 (antibody, human IgG1, kappa)
heavy 1: not shown
heavy 2: not shown
light: B1 light
notes: also called He Ab S239_01G
B20: GpH7-A5/GpH7-B3 variant P271_04F/GpL16-k0 (antibody, human IgG1, kappa)
heavy 1: not shown
heavy 2: not shown
light: B1 light
notes: also called He Ab P271_04F
B21: GpH7-A5/GpH7-B3 variant Q295_18N/GpL16-k0 (antibody, human IgG1, kappa)
heavy 1: not shown
heavy 2: not shown
light: B1 light
notes: also called He Ab Q295_18N
B22: GpH7-A5/GpH7-B3 variant P271_20W/GpL16-k0 (antibody, human IgG1, kappa)
heavy 1: not shown
heavy 2: not shown
light: B1 light
notes: also called He Ab P271_20W
B23: GpH7-A5/GpH7-B3 variant P271_11K/GpL16-k0 (antibody, human IgG1, kappa)
heavy 1: not shown
heavy 2: not shown
light: B1 light
notes: also called He Ab P271_11K
B24: GpH7-A5/GpH7-B3 variant Q295_05P/GpL16-k0 (antibody, human IgG1, kappa)
heavy 1: not shown
heavy 2: not shown
light: B1 light
notes: also called He Ab Q295_05P
B25: GpH7-A5/GpH7-B3 variant P271_06M/GpL16-k0 (antibody, human IgG1, kappa)
heavy 1: not shown
heavy 2: not shown
light: B1 light
notes: also called He Ab P271_06M
B26: GpH7-A5/GpH7-B3 variant S239_19Q/GpL16-k0 (antibody, human IgG1, kappa)
heavy 1: not shown
heavy 2: not shown
light: B1 light
notes: also called He Ab S239_19Q
B27: GpH7-A5/GpH7-B3 variant Q295_13S/GpL16-k0 (antibody, human IgG1, kappa)
heavy 1: not shown
heavy 2: not shown
light: B1 light
notes: also called He Ab Q295_13S
B28: GpH7-A5/GpH7-B3 variant Q295_08L/GpL16-k0 (antibody, human IgG1, kappa)
heavy 1: not shown
heavy 2: not shown
light: B1 light
notes: also called He Ab Q295_08L

The binders below were run against T1, FcγRIa (human, UniProt P12314 16-292) (assay: SPR (Biacore); Ho Ab vs HoCon Ab GpH7-B3/GpL16-k0).
T1 construct: extracellular domain; Soluble extracellular domain expressed in FreeStyle293 cells, used as analyte in Biacore; also called FcgRI; 1a; not shown: His tag attached to the C terminus
T1 sequence (P12314 16-292): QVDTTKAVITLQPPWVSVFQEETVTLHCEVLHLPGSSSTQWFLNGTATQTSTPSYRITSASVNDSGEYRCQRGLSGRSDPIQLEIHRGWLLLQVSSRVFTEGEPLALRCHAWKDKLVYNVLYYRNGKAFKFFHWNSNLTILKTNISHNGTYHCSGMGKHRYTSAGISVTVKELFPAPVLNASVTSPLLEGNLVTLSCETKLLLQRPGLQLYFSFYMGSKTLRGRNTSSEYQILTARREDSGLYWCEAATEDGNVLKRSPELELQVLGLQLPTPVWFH
Procedure: (§1) Analysis of interaction between objective antibody and the FcγR was carried out using Biacore T100 (GE Healthcare). HBS-EP+ (GE Healthcare) was used as the running buffer, and the measurement temperature was set to 25° C. Chips produced by immobilizing the antigen peptide by the amine coupling method to a Series S Sencor Chip CM5 (GE Healthcare), or alternatively, chips produced by allowing preliminarily biotinylated antigen peptides to interact with and immobilize onto a Series S Sensor Chip SA (certified) (GE Healthcare) were used. Antibodies of interest were captured onto an antigen peptide-immobilized chip, and allowed to interact to each FcγR diluted with running buffer. To regenerate and repeatedly use the chip, the antibodies captured on the chip were washed off by reacting 10 mM glycine-HCl, pH 1.5.

Ho/Con_1a | Binder
112 relative binding, control = 100 | B1
105 relative binding, control = 100 | B2
105 relative binding, control = 100 | B3
106 relative binding, control = 100 | B4
106 relative binding, control = 100 | B5

Each binder was assayed against T1, FcγRIa (assay: SPR (Biacore); He Ab vs HeCon Ab GpH7-A5/GpH7-B3/GpL16-k0).
Procedure: as §1

He/Con_1a | Binder
109 relative binding, control = 100 | B6
104 relative binding, control = 100 | B7
101 relative binding, control = 100 | B8
103 relative binding, control = 100 | B9
104 relative binding, control = 100 | B10
102 relative binding, control = 100 | B11
103 relative binding, control = 100 | B12
102 relative binding, control = 100 | B13
101 relative binding, control = 100 | B14
102 relative binding, control = 100 | B15
101 relative binding, control = 100 | B16
103 relative binding, control = 100 | B17
102 relative binding, control = 100 | B18
101 relative binding, control = 100 | B19
102 relative binding, control = 100 | B20
102 relative binding, control = 100 | B21
103 relative binding, control = 100 | B22
103 relative binding, control = 100 | B23
103 relative binding, control = 100 | B24
102 relative binding, control = 100 | B25
101 relative binding, control = 100 | B26
102 relative binding, control = 100 | B27
105 relative binding, control = 100 | B28

— patent US20150344570A1 (published 2015)
